In FireProtDB (doi:10.1021/bi201253b):

Conditions: Moniliophthora perniciosa, pH 7.2, Thermal, CD, sodium phosphate buffer 4mM, whole UniProt chain shown

B1: wild type, A5H7H0 (protein)
chain: MQLQNFLSIVLLVVSGAIAGTVMDHDKIAKLPASGSPLETKFQPQLHIGNGCHSYPAVDAQGNWSGGLKPTGAPSAACKDTSKAQTYVRSATFQGKTALVYAWYMPKDEISTGIGHRHDWEGAVVFLNSDTQQIDGVAASAHGKWRKYPNPGGANIDDTHVKLQYSAEPVINSHALDLTDKGGDLPTLASWEGMGADARAAINERSHWGDANPPIADSLIGSSLSGAWMW
With B1 the Tm (EDTA CaCl2 62.5 micro M 120 micro M) was 41.6 °C, the Tm (EDTA CaCl2 with ZnCl2 62.5 micro M 120 micro M 120 micro M) was 40 °C and the Tm (EDTA ZnCl2 62.5 micro M 120 micro M) was 41.2 °C.
